B1: KP3-17 (anti-Rh17), as used in Example 8 (antibody, V domains shown)
VH: EVQLLESGPGLLKPSETLSLTCAVSGAPISNYWWSWIRQSPGKGLEWIGEIDGSIYTTYYNPSLKSRVAISKDTSKNRLSLKLTSVTAADTAVYYCAREGQNPLVPTYGSTGFGLDFWGHGLAVTVSS
VL: AAELTQSPSSLSASVGDRVTITCQASQGISSWLAWYQQKPGKAPKLLIYKASSLQSGVPSRFSGSGSGTDFTLTISSLQSEDFATYYCQQYSSSPRTFGQGTKVEIK

Tests used:
[1] = molecular target: T1, human RhCE protein (RHCE; Rh17/Hr0 epitope) on human red blood cells (human, UniProt P18577 2-417); assay: Western blot of reduced, denatured proteins from human erythrocyte ghosts
T1 construct: Target on intact human RBCs of donors
T1 chain: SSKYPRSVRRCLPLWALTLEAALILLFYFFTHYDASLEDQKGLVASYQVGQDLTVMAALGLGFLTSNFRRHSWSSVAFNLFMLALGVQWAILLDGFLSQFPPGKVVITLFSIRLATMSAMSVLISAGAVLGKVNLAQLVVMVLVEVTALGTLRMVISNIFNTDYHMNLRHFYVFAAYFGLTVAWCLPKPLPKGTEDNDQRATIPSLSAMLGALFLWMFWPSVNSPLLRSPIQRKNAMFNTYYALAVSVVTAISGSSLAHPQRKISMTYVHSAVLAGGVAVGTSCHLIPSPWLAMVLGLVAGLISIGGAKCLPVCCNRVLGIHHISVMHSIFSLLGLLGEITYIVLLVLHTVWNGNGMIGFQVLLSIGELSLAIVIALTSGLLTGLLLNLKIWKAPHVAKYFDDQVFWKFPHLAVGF
Procedure: (§1) A Western blot was performed to assess the binding of KP3-17 (anti-Rh17) to proteins extracted from mouse and human erythrocyte ghosts. Because proteins were denatured in reducing SDS-PAGE buffer prior to gel electrophoresis, the presence of binding is due to interaction with linear, and not conformational, epitopes. This is in contrast to anti-RhCE mAbs described by other groups, which recognize conformational epitopes.
as §1, with “Rh17” for “KP3-17 (anti-Rh17)”, “ghosts (FIG. 25).” for “ghosts.”

[2] = molecular target: T1, human RhCE protein (RHCE; Rh17/Hr0 …); assay: Fab/phage binding assays on human RBCs incl. rare RBC types lacking conserved antigens
Procedure: An IgG Fab/phage display library was prepared from the peripheral blood lymphocytes of a hyperimmunized macaque using homologous human V-region oligonucleotides (Siegel D L, R. M., Lee H, Blancher A., Production of large repertories of macaque mAbs to human RBCs using phage display. Transfusion, 1999. 39(S10): p. 92S, which is incorporated herein by reference). Fab/phage specific for human RBCs were isolated by panning on intact human RBCs. Monoclonal Fab/phage were grown to produce antibodies for immunoassays and their corresponding DNA was extracted for sequencing. To identify target epitopes, antibodies were screened against RBCs of known serologic phenotypes, including rare cells lacking highly conserved antigens, using standard immunohematologic techniques (Roback, J. D., Technical Manual. 2014: American Association of Blood Banks (AABB), which is incorporated herein by reference.)
Using antibody phage display, we identified non-human-primate Fab antibody fragments to antigenic determinants on human RBCs. By panning phage libraries on human RBCs, we produced a Fab/phage preparation with >10⁷ RBC-specific clones capable of agglutinating human RBCs. By performing binding assays against rare RBC types lacking highly conserved antigens and epitopes, we identified the target antigens of >30 of these clones. At least 34 clones bound the Wright b (Wrb) epitope formed by a Band 3/GPA interaction, present on the RBCs of essentially 100% of the human population. The Wrb epitope, determined by the protein sequence of Band 3, is a site of association between Band 3 with GPA, and GPA expression is simultaneously required for its presence on the membrane (Huang C H, Reid M E, Xie S S, Blumenfeld 00. Human red blood cell Wright antigens: a genetic and evolutionary perspective on glycophorin A-band 3 interaction. Blood. 1996; 87(9):3942-3947). At least 3 other clones bound to a highly-conserved epitope Rh17(Hr0) on human RhCE protein, also present on essentially 100% of the human population. Both these targets are specific for erythroid lineage (Rojewski M T, Schrezenmeier H, Flegel W A. Tissue distribution of blood group membrane proteins beyond red cells: evidence from cDNA libraries. Transfus Apher Sci.

[3] = molecular target: B1; assay: peptide competition, flow cytometry on human erythrocytes; RhD loop peptide as negative control
Description: Flow cytometry was used to assess the binding of anti-Rh17 to human erythrocytes in the presence and absence of linear peptides corresponding to the amino acid sequence 6th extracellular loop of human RhD (negative control) and human RhCE. […] (* denotes p<0.05 by 1-way ANOVA with Tukey's post-hoc test).
Rh17 recognizes an epitope present in the 6th extracellular loop of human RhCE. Flow cytometry was used to assess the binding of Rh17 to human erythrocytes in the presence and absence of linear peptides corresponding to the amino acid sequence 6th extracellular loop of human RhD (negative control) and human RhCE (FIG. 26).

[4] = molecular target: T1, human RhCE protein (RHCE; Rh17/Hr0 …); assay: dissociation of 125I-labelled protein from saturated human RBCs
Procedure: (§2) Recombinant proteins were radiolabeled with Na¹²⁵I (Perkin Elmer, Exton, Pa.) using pre-formulated iodination reagent (Pierce Iodination Reagent, Thermo Fisher Scientific, Carlsbad, Calif.) per the manufacturer's protocol. Radiochemical purity was verified by instant thin layer chromatography on silica and was typically >95%. Radiolabeled proteins were added to human RBCs at 0.02% hematocrit in PBS with 2% human AB serum. Binding was allowed to reach equilibrium over 4 hours at 37 degrees C. After binding, cell suspensions were rapidly washed at least four times with cold PBS. The resulting cell pellet was counted using a Perkin Elmer Wizard2 gamma counting system. Dissociation of the fusion proteins was assessed using RBCs saturated with radiolabeled proteins, washing unbound ligands, and placing in dilute suspensions prior to measurement of bound ligand at specified time points. Similar binding experiments were performed with fluorescently-labeled recombinant proteins and cells were analyzed by flow cytometry (Accuri C6, BD Biosciences, San Jose, Calif.). Fluorescently labeled proteins were produced by reaction with amine-reactive derivatives of fluorescent dyes AlexaFlour488 and AlexaFlour647 (typically 10- to 20-fold excess at pH 8) and purified using 10,000 MWCO centrifugal filter devices (EMD Milipore, Billerica, Mass.).

[5] = molecular target: T1, human RhCE protein (RHCE; Rh17/Hr0 …); assay: direct binding of 125I-labelled protein to human RBCs, 4 h at 37 C
Procedure: as §2

[6] = molecular target: T2, Band 3 / glycophorin A (Wright b, Wrb epitope) on human red blood cells (human, UniProt P02724 20-150); assay: dissociation of 125I-labelled protein from saturated human RBCs
T2 construct: whole, on cells; also called Band3/GPA; AE1
T2 sequence 1: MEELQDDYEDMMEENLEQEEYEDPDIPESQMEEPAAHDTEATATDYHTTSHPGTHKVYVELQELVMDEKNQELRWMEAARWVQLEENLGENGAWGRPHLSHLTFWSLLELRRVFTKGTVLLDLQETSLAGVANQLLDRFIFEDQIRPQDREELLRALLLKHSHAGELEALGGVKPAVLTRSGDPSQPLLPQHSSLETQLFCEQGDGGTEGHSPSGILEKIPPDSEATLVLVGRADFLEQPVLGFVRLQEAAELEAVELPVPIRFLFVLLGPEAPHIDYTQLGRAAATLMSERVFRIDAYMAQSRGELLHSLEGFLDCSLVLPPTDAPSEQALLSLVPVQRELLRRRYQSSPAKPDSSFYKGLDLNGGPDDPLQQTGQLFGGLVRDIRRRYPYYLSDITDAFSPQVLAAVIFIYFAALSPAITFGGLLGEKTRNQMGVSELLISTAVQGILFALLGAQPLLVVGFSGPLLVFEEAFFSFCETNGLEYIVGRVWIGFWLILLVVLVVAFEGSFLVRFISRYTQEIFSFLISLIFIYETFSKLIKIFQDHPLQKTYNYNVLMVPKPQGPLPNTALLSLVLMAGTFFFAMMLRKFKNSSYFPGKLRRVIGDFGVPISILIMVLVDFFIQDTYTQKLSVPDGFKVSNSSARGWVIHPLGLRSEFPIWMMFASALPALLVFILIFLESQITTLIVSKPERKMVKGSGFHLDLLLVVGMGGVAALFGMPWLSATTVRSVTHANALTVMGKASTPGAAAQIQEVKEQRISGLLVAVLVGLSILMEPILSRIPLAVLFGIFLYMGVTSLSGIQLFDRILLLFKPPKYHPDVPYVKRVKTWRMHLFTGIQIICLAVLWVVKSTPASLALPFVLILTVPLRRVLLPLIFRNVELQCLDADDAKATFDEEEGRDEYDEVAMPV
T2 sequence 2: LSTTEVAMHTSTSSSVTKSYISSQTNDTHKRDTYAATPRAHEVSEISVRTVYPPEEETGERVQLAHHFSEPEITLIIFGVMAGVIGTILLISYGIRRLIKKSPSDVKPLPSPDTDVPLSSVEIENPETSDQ
Procedure: as §2

[7] = molecular target: T2, Band 3 / glycophorin A (Wright b, Wrb …); assay: direct binding of 125I-labelled protein to human RBCs, 4 h at 37 C
Procedure: as §2

## B1
[1]
  binding result: binds

B2: KP3-17 Fab/phage clone (anti-RHCE, Rh17) (Fab, V domains shown)
VH: EVQLLESGPGLLKPSETLSLTCAVSGAPISNYWWSWIRQSPGKGLEWIGEIDGSIYTTYYNPSLKSRVAISKDTSKNRLSLKLTSVTAADTAVYYCAREGQNPLVPTYGSTGFGLDFWGHGLAVTVSS
VL: AAELTQSPSSLSASVGDRVTITCQASQGISSWLAWYQQKPGKAPKLLIYKASSLQSGVPSRFSGSGSGTDFTLTISSLQSEDFATYYCQQYSSSPRTFGQGTKVEIK
[2]
  binding result: binds

B3: linear peptide corresponding to the 6th extracellular loop of human RhD (peptide, UniProt Q02161 346-360, looked up)
peptide: LLVLDTVGAGNGMIG
notes: domain: 6th extracellular loop; Negative control peptide; also called RhD peptide (negative control)
[3]
  binding result: no binding

B4: aRh17 scFv (anti-RhCE), clone KP3-17 (scFv)
scFv: EVQLLESGPGLLKPSETLSLTCAVSGAPISNYWWSWIRQSPGKGLEWIGEIDGSIYTTYYNPSLKSRVAISKDTSKNRLSLKLTSVTAADTAVYYCAREGQNPLVPTYGSTGFGLDFWGHGLAVTVSSGGGGSGGGGSGGGGSAAELTQSPSSLSASVGDRVTITCQASQGISSWLAWYQQKPGKAPKLLIYKASSLQSGVPSRFSGSGSGTDFTLTISSLQSEDFATYYCQQYSSSPRTFGQGTKVEIK
modifications: radio-iodinated (125I) or amine-labelled with AlexaFluor 488/647 in the binding assays; sites not stated
notes: scFv produced as H2N-VH-(GGGGS)3-VL-FLAGx3-COOH in E. coli periplasm (pBAD/gIII); Macaque-derived; also called anti-Rh17 scFv; aRHCE scFv; not shown: C-terminal FLAGx3 tag
[4]
  koff: 2e-05 s⁻¹
[5]
  Kd: 41.4 nM

B5: aWrb scFv (anti-Band3/GPA), clone KP2-23 (scFv)
scFv: EVQLLESGPGLVKPSETLSLTCTVSGSSLSSAYGWNWIRQPPGKGLEWIGSIGGSRDNTNYNPSLKRRVTISKDTSKNQFSLKLKSVTAADTAVYYCAQRGAYGYSYFDYWGQGVLVAVSSGGGGSGGGGSGGGGSAAELTLTQSPATLSLSPGETATLSCRASQTVGRNLAWYQQRPGQAPNLLVHSAYFRATGIPDRFSGSGSGTDFTLTISSLEPEDAGVYHCQQYNDLLPLTFGGGTKVEIK
modifications: radio-iodinated (125I) or amine-labelled with AlexaFluor 488/647 in the binding assays; sites not stated
notes: scFv produced as H2N-VH-(GGGGS)3-VL-FLAGx3-COOH in E. coli periplasm; also called anti-Wrb scFv; KP2-23 scFv; not shown: C-terminal FLAGx3 tag
[6]
  koff: 2.9e-05 s⁻¹
[7]
  Kd: 21.3 nM

— patent US20210171652A1 (University of Pennsylvania, published 2021)
